Assays:
[1] = system: tyrosine-phosphorylated proteins from HeLa cell lysate; experiment: GST pulldown assay, pervanadate-treated HeLa cell lysate; assay type: binding; conditions: GST fusion, compared to the Wt SH2 domain, 4G10 immunoblot
Procedure: The wild-type (Wt) and triple mutant (TrM) Fyn SH2 domains (Ala^139-Gly^249) were respectively subcloned into the pETM30 vector (Dümmler, et al. Microb. Cell Fact. 4, 34 (2005)). The Fyn SH2 domain constructs contain a FLAG tag sequence ([…]) (SEQ ID NO: 27) at the C-terminus. To create the GST control vector, a stop codon was inserted after the GST tag sequence of the original pETM30 vector. The GST and GST-SH2 proteins were expressed in E. coli BL21(DE3). HeLa cells were treated with 50 μM pervanadate for 10 min at 37° C. HeLa cells were lysed on ice in lysis buffer containing 0.5% NP-40, 50 mM HEPES pH 7.4, 1 mM magnesium chloride, 150 mMKCl, and the COMPLETE protease inhibitor cocktail (Roche). The GST pulldown assay was conducted as described (Li et al. J. Biol. Chem. 278, 3852-3859 (2003)).

EGFR = target: T1, EGFR (Homo sapiens, UniProt P00533); experiment: immunoprecipitation of GFP-fused SH2 domains with EGFR in HEK 293 cells; assay type: cell-based; conditions: GFP-fusion expressed in HEK 293 cells, EGF 100 ng/ml, anti-GFP and anti-EGFR antibodies
T1 construct: endogenous in cells; host or cells: HEK 293
From the text: The three variant SH2 domains mentioned in the previous sentence were dubbed as 8V/10A/15L-substituted SH2 domains, or the TrM SH2 domains, in the following descriptions, as well as in FIG. 11 and FIG. 12. The wild-type (Wt) and TrM SH2 domains, subcloned into the pEGFPC2 vector, were expressed in the HEK 293 cells as a GFP-fusion protein. Methods used in this and the following sections are described below.
Anti-GFP rabbit polyclonal antibody was purchased from Sigma-Aldrich. Anti-EGFR rabbit polyclonal antibody was purchased from Millipore. Anti-p44/42 MAPK (Erk1/2) mouse monoclonal antibody, and anti-phospho-p44/42 MAPK (Thr202/Tyr204) mouse monoclonal antibody were purchased from Cell Signaling. HEK 293 cells were grown in Dulbecco's modification of Eagle's medium (DMEM, Sigma-Aldrich) supplemented with 10% fetal bovine serum (FBS, SAFC Biosciences), 50 units/ml penicillin and 50 μg/ml streptomycin (GIBCO Invitrogen Corp.) in a humidified atmosphere of 5% CO2 in air at 37° C. EGF (Invitrogen) at a final concentration of 100 ng/ml was added to the medium at the indicated time point. Transient transfections were carried out with jet-PEI (PolyPlus-Transfection; Illkirch, France) according to manufacturer's instruction.
HEK 293 cells were transfected with the SH2 domain construct subcloned in the pEGFPC2 vector, and incubated in serum-containing full medium for 24 h followed by serum-starvation for 16 h and then EGF (100 ng/ml) treatment for 10 min, pervanadate treatment for 10 min. The whole cell lysates were prepared and subjected to IB analysis to detect phosphorylated Erk and total Erk.
HEK 293 cells were lysed with cold lysis buffer (1% NP-40, 50 mM Tris-HCl pH 7.4, 150 mM NaCl, 2 mM EDTA, 50 mM NaF, 10% Glycerol and protease inhibitor cocktail diluted at 1:1000). After centrifugation at 13,000*g for 15 min, the supernatants were collected. After clearance of the lysate with appropriate pre-immune serum and protein G (Roche), immunoprecipitation (IP) and immunoblotting (IB) were performed. […]

[2] = system: non-phosphorylated fluorescein-GGYGG peptide (SEQ ID NO: 24); experiment: fluorescence polarization binding assay, non-phosphorylated GGYGG peptide
Procedure: (§1) Each peptide was synthesized on the TentaGel amide resin (INTAVIS Inc.) and N-terminally labeled with fluorescein using NHS-fluorescein (Thermo Fisher Scientific). Each of the 13 variant and the wild-type SH2 domain was produced by overexpression in the Escherichia coli BL21(DE3) strain cultured in LB media (EMD Chemicals). Expression was induced by 0.3 mM isopropyl β-D-1-thiogalactopyranoside (IPTG), and the cell culture was incubated for 5 hours at 37° C. The cells were harvested by centrifuge, and broken on ice, in buffer solution containing 20 mM sodium phosphate, 0.1 M NaCl, 20 mM imidazole, 1 mg/ml lysozyme and 1% Triton-X 100, adjusted at pH 7.8. Affinity purification was performed with the Ni-NTA agarose resin (Qiagen Inc.), according to the manufacturer's instruction. The purified material was dialyzed against phosphate-buffered saline (PBS), pH 7.4, at 4° C. overnight. Measurements of fluorescence polarization were conducted by titrating the SH2 domain concentration, while keeping the peptide concentration constant. Kd values were calculated with the GraphPad Prism software, by assuming the one-site binding model (GraphPad Software).
(§2) The determined Kd values of interaction between the 14 SH2 domains (including the wild-type) and seven peptides were listed in FIG. 7(a).

[3] = system: seven fluorescein-labeled pTyr-containing peptides; experiment: in-solution fluorescence polarization binding assay, set of seven peptides; conditions: average over seven peptides, relative to the wild type of the same SH2 domain
Procedure: as §1, §2
The wild-type and variant Src SH2 domains were expressed in E. coli BL21(DE3) strain grown in the LB media, by inducing protein expression with 0.3 mM IPTG, and incubating the cell culture at 30° C. for six hours. Cells were harvested by centrifuge, and broken on ice in buffer solution containing 20 mM sodium phosphate, 0.1 M NaCl, 20 mM imidazole, 1 mg/ml lysozyme, 1% Triton-X 100, adjusted at pH 7.8. Affinity purification was performed with the Ni-NTA, agarose resin, according to the manufacturer's instruction. […]
Fluorescence polarization assay was conducted to determine Kd values of the interaction between the wild-type or variant Src SH2 domain and seven fluorescein-labeled pTyr-containing peptides (FIG. 9a).

A549 cells = experiment: cell viability after gold nanoparticle delivery of SH2 protein, EGF treatment, A549; assay type: cell-based; conditions: 100 ng/ml EGF, compared with the Wt SH2 domain
Procedure: (§3) The hexa-histidine-tagged SrcWt and TrM proteins were purified to homogeneity in 5 mM HEPES buffer (pH 7.6). 1 nM of gold nanoparticle was mixed with 100 nMWt or TrM variant protein. The MCF-7 and A549 cells were starved six hours before treatment. The cells were then treated with 100 ng/ml EGF for 20 hours. The nanoparticle-protein mixture was applied to cells. Cells were trypsinized and stained using 0.4% trypan blue (Sigma-Aldrich) and viable and total cell numbers were counted haemacytometer with the use of a microscope according to manufacturer's instruction.

[4] = system: phosphorylated proteins (ALK) from H370 cell lysate; experiment: GST pulldown, H370 cell lysate with ALK activation by mAb46; assay type: binding, human; conditions: GST fusion, compared to the Wt
Procedure: The Wt human Src (hSrc) SH2, the TrM hSrc SH2, and Wt Rous sarcoma virus Src (vSrc) SH2 domains were prepared, respectively, as GST tag fusion proteins. The vSrc SH2 domain is almost identical to the hSrc SH2 domain (there are three-residue differences in the SH2 domain region, and the differences are located outside of the target-binding surface). 5 μg of the GST-tagged SH2 domain was incubated with 500 μg of H370 cell lysate treated with or without the ALK activation antibody mAb-46 at room temperature for 30 min. 20 μl of glutathione sepharose beads was then added for another 30 minincubation at room temperature. As a positive control, the anti-pTyr antibody P-Tyr-100 (Cell Signaling, #9411) was used for immunoprecipitation. 4 μl of the P-Tyr-100 antibody was incubated with 500 μg H370 cell lysate treated with or without the ALK activation antibody mAb-46 for 2 hours at 4° C. Next, 20 μl protein G beads was added for another incubation for two hours at 4° C. The glutathione beads or protein G beads were washed with 1×PBS (phosphate buffered saline) three times. The beads were added to 30 μl 2×SDS loading buffer and boiled for 10 min. The samples were resolved on an 8% Bis-Tris SDS-PAGE gel. The gel was applied to Western blotting to transfer the samples onto PVDF membrane (Millipore) and the proteins were probed with the P-Tyr-100 antibody. […]

MCF-7 cells = experiment: cell viability after gold nanoparticle delivery of SH2 protein, EGF treatment, MCF-7; assay type: cell-based; conditions: MCF-7 (no EGF receptor), 100 ng/ml EGF
Procedure: as §3

[5] = target: fluorescein-GGpYGG peptide (SEQ ID NO: 23); experiment: fluorescence polarization binding assay, GGpYGG peptide
[6] = system: tyrosine-phosphorylated proteins of U937 cell lysate; experiment: Far-Western blotting, pervanadate-treated U937 cell lysate; assay type: binding, human; conditions: GST fusion 3.5 μg/ml
Procedure: The GST protein and GST-Src SH2 TrM were prepared as 3.5 μg/ml concentration in the TBS buffer (50 mM Tris-HCl pH 7.2, 137 mM NaCl). The cultured U937 cells were treated with or without 50 μM pervanadate in PBS for 10 min at 37° C. The cells were lysed in the buffer (0.5% NP-40, 50 mM HEPES pH 7.4, 1 mM magnesium chloride, 150 mMKCl) with sonication on ice, and supernatant was loaded on an SDS-PAGE gel for separation and following transfer to the PVDF membrane (Millipore). The membrane was blocked with 5% milk in TBS-T (0.5% Tween-20 in TBS) overnight at 4° C., and probed with 3.5 μg/ml GST proteins for 1 hour at room temperature. The membrane was washed with TBS-T, and incubated with anti-GST antibody-HRP (horseradish peroxidase) conjugate (Sigma, #A7340) for 1 hour at room temperature. The signal from HRP was detected as enhanced chemiluminescence on an X-ray film.

Sequence of non-phosphorylated fluorescein-GGYGG peptide (SEQ ID NO: 24) (as listed by the source): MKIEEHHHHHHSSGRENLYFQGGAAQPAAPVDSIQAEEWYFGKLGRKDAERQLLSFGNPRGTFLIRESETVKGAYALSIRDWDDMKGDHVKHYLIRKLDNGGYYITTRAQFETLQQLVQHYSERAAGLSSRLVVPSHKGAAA
Sequence of phosphorylated proteins (ALK) from H370 cell lysate (Q9UM73 1060-1620 limits assumed): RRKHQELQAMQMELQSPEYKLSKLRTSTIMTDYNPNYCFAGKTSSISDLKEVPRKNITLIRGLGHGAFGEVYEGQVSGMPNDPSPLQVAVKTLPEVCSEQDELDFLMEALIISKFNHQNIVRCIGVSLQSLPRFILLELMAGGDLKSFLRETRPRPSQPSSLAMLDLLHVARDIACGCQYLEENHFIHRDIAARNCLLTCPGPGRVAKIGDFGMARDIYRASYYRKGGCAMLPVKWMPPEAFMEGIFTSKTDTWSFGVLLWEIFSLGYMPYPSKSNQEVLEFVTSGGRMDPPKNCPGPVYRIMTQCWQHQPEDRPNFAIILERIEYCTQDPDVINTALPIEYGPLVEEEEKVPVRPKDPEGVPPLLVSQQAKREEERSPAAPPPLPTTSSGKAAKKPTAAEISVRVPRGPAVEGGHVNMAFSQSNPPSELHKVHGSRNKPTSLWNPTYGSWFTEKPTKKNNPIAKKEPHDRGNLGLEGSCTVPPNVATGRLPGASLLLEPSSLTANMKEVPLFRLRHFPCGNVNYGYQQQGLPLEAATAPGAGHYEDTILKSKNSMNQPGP

binding to EGFR (immunoprecipitation) (EGFR)	binding to non-phosphorylated peptide [2]	average affinity increase, Kd[wild-type] divided by Kd[variant] [3]	Kd [5]	Molecule	ability to bind tyrosine-phosphorylated proteins (GST pulldown) [1]	cell viability upon EGF treatment (A549 cells)	capture of phosphorylated proteins from H370 cell lysate upon stimulation [4]	cell viability upon EGF stimulation (MCF-7 cells)	detection of tyrosine-phosphorylated proteins by Far-Western blotting [6]
strong binding	did not show detectable binding	293 fold		T8V/S10A/K15L: variant Fyn SH2 domain: Thr position 8 to Val, Ser position 10 to Ala, Lys position 15 to Leu; SEQ ID NO:17 (protein, Synthetic construct T8V/S10A/K15L) APVDSIQAEEWYFGKLGRKDAERQLLSFGNPRGTFLIRESETVKGAYALSIRDWDDMKGDHVKHYLIRKLDNGGYYITTRAQFETLQQLVQHYSERAAGLCCRLVVPCHKG	enhanced ability				
strong binding				A8V/S10A/K15L: variant human Grb2 SH2 domain, Met55 to Pro158 with A8V, S10A, K15L substitutions; SEQ ID NO: 22 (protein, Synthetic construct Grb2_triple) MKPHPWFFGKIPRAKAEEMLSKQRHDGAFLIRESESVPGDFALSVKFGNDVQHFLVLRDGAGKYFLWVVKFNSLNELVDYHRSTSVSRNQQIFLRDIEQVPQQP					

Continued, molecule first:

Molecule	binding to EGFR (immunoprecipitation) (EGFR)	binding to non-phosphorylated peptide [2]	average affinity increase, Kd[wild-type] divided by Kd[variant] [3]	Kd [5]	ability to bind tyrosine-phosphorylated proteins (GST pulldown) [1]	cell viability upon EGF treatment (A549 cells)	capture of phosphorylated proteins from H370 cell lysate upon stimulation [4]	cell viability upon EGF stimulation (MCF-7 cells)	detection of tyrosine-phosphorylated proteins by Far-Western blotting [6]
T8I/S10A/K15L: variant Fyn SH2 domain; SEQ ID NO:16 (protein, Synthetic construct T8I/S10A/K15L) APVDSIQAEEWYFGKLGRKDAERQLLSFGNPRGTFLIRESETIKGAYALSIRDWDDMKGDHVKHYLIRKLDNGGYYITTRAQFETLQQLVQHYSERAAGLCCRLVVPCHKG			86.4 fold						
T8V/C10A/K15L: variant human Src SH2 domain, position 8 Val, position 10 Ala, position 15 Leu; SEQ ID NO:21 (protein, Synthetic construct T8V/C10A/K15L) DSIQAEEWYFGKITRRESERLLLNAENPRGTFLVRESETVKGAYALSVSDFDNAKGLNVKHYLIRKLDSGGFYITSRTQFNSLQQLVAYYSKHADGLCHRLTTVCPTSK	strong binding		238 fold	510 nM		reduced cell variability	substantially larger amount	did not significantly affect cell variability	broad detection of tyrosine-phosphorylated proteins

— patent publication US10274499B2, “SH2 domain variants” (THE UNIVERSITY OF WESTERN ONTARIO, priority 2012, dated 2019)
